Assay results: the DeepSol protein solubility set

test: soluble on expression in E. coli; label from the status in PepcDB or PDB records

Sequence	soluble on expression in E. coli
MHGNPMNIPPVSIAAAKAALIEQYADPTLRRRASMLWGTRGVGKSSIVRQVAAHYRVPLIDLRLTTIEPVDIRGAIYADENLAKTVWFPPEFLPSRDQPEGVLFLDELTAADQRLQISAYSLILDRRVGNYHLPDGWQVVAAGNASFHGAISHDMGTALADRMFHFNVQTAIDAFLNHAITQEFAPEVMAYLKIRPDKLDDTQAQLAGDHLIGASPRGWEDISNVLKSGLSDHAKRLFVQGRIGAANAAEFFGVLREIQAGTDVLKLLAARPGPETAALLPKSLDALYGMLYGLLAASTDKQTMARALEIIEQLPDIRSAAPLPIREAQTLAMELLMQRGLENGLESAILDSPAYASYAGRRQLEASDALEHHHHHH	not soluble
DESATSYANSAIAIELDGDQYVARIKDPLADHAKYTEAFHAVGLDIDLRLVPASPTAVGKFLSVRWSKSSGAGPARSASGGSLPTLKFTPENCGEPNQAGCELTMRVPADYTGNMSLSLGRRAEPGEEYKNPDWATAPGEMFGGVQLQDGRPVDAMLAEARRRDLTVEFSRIRPDAETGALSFEPLSADQVRGDWTVWHAWQVKAGVIRLLVTPERLPENPFEKGARPPS	not soluble
MANDEEFFIVRCRGPSSYRESVYKYLTGQPSDWNRNSVFLRNMHVGRAKNVKEIFNCILQTQPLPVVQPCHPVRQPRESFYSSHEHDPMDEVLLQEVKEEAHSLAFKGIPIETKGPTPSSTIMNPEVTLRDVLTFHKNIKRRPQETKPAKFDFSAMPSTSRLPPTSPKRYRQFAPPPISMKQSPKICAKTVSCPSTSEVKSPPKKMIIQKIQKHQEAPKPAKVPKIKGEKKKKDGRQDEQEEIDIELKLSKSTVSSQTLKRHNISFERKPQRGI	not soluble
MGSDKIHHHHHHGCSYGVGDDCLPPEEPVPIRMAIAEGKLSTRAPVTTIDASNLSNVGIYAVSEGSIAGQYPWTSTPFALNLVPSGISGSQLSFNPKLYYPLGGKRVIFYSYYPRTTATSGSNYITAPGNGVAPAYHFTLTGTEDIMYAAGTPTGSTSTMPVSLTFNHVLTQLQLNTSLLGALSSIKLLGVYNKGMLDIGNGNVTYDSSTTDITLTVPLLGSVTNTVMVPAGVASYKVEVVLLLSLLKRTYLVKPTSGNFQPGVIYTISL	not soluble
MGSDKIHHHHHHMRKLISIILLLLTININSQIVELRPVKVPAEHAEYFETIHTEYSIKTAQDAKDKGKLYGWWVAKRLNTNEDDFNYLFITVHPSVESLIDNEYWWQNSEEVTGYKPEILYKMADLFEFDKQYIYQVEMQIPDAAEAKYIIINFATPDDLNTVLKESKEIVMPHFQKNLIKSGMVGWGVATKITPQGSNYSSFSTWDSYDSLENMMKHLGGGAAIEGLPLNKLTPIEWSMRPIFRVITGTK	not soluble
MTDRRQYAPATQRNRETIAAVLQEYLPSQGSILEIASGTGEHACFFAPLFSPRWWITSDPDPLCRESIMAWRDHQALANFQSPLDLDVNDQVWPVEREILREPVTSIVAINLIHISPWESCLGLLTGAERILPEGGILYLYGPYRQKGVPTAPSNEAFDQSLQSRNPAWGLRQLEDVIGEAGKRNLHNQAIIPMPANNLSVIFQKGLEHHHHHH	not soluble
MGSDKIHHHHHHMVDFKEQQQRYWQLLHQPESLFLLHRANDVEHFIALMTDFLAWPELSLEHMLAFIALQQDSFIPDLDRFSQAWFPCRYHSQHKTVSWVPALHKLSKPFLEDDISDARRCLLASFIQPSTLLEPLLSQRESLPIVNPSLMIFHWSRCGSTLVSSSFALLETCRVLSESMLCSDVMHDDHWPLALKPQLVDLCLRLQGRLRLGERKLVIKWNAWDLACWPMLLELYPKSRVLCLIRNPKDIIDSHQRVAGRHMAGGQSLLPTELQTQQMENTDTEPSLDEFRTTVLQYLAQLSLALHQSSRVILLDYHQLTDFKPTTFSTILGWALSEGEIERWQHHWRFDAKQQGQLFTPVVPNEPVPIRECQNPSWQQLLITYNQLLQRLYWDKKA	not soluble
MLRQIVLMCAIHTACSFSIRDIINGKRGADAAIPAPCPTWHPFACPSGECVPIKYLCDGSPDCSDEYDENKSMCTAATRPPVEETQAFLKALMSAHGKDFLVKVFGPKAKAELSGMGGVDKVAVALSQTPTADLFASEMKLDDGETQHMLEVMEGILNGSTDELTSNEAADFRFFVQKLQETGFF	not soluble
MAEAESVSVDGWDFSWLDGRATEQRPSWGYQRLMGERLARANAALDIQTGGGEVLAGAMTMPPVMVATESWPPNVAKATALLHPLGAVVVADADEPPLPFAEGAFDLVTSRHPATVWWDEIARVLRPGGTYFSQHVGHASVFELVEYFLGPQPTRPASSSRPANAADSAHRLRPVEGLPDDVGVPGVLGGLPDDVEQDPARGPA	not soluble
MSLKFEKFICNLRQFTLTNGLKRSIAIISLVDKKGNISKGEVAPLPPWSKETLEEAIRQIDAKKSFILNIDWTIENYRDALMHLHLFPSVQFGIESALLSFLDPLKTYSIPVSALLMGSKKEILAQAKLRLQEGYQIAKLKVSQLSFSDAAKLIHQLKDTFRLRIDVNRAWKTEDSLQFFSEYSLDSFDYVEEPFQNPKELSLFSHPLAVDESFPSNFSLQDLETLCSLKSLIYKPTLQGGMTTCLPVYKWAKQRNIEFVLSSSFESELGLSHLISMAARLKLTSPIGIGTYHFLPQTEGPFLISNGQVNLKNLEGHHHHHH	not soluble
MGSDKIHHHHHHSDDINQKVAEQLAQKAQSSSLGYDIVESLTVEVGPRLAGSEQDKVAVDWAIAKLQSLGFDRVYKEPVTVPVWRRGIAKASILSPFPQPLVVTALGGSIATPAQGLSATIVRFDTLQDLQNAEAGSLNDKIAFIDAKTERHRDGKGYGQTASGRSRGAVAAAEKGAVGIIIRSIGTDHDRMAHTGMMRYEEGVTAIPAAAISNPDADLINAMLKRDKEVVISLELGSERRGETTSYNVIAEVKGSTKADEIVLIGAHLDSWDEGTGAIDDGAGVAIVTAAAKHILDLPQKPERTIRVVLYAAEELGLLGGKTYAKEHEAELEKHYIAAESDFGAGPIYQIDWRVADTAHSPVINAMKVAEPLGVAAGNNKASGGPDVSMLPALGVPVASLRQDGSDYFDYHHTPNDTLDKINPEALAQNVAVYAQFAWVMANSKVELRPLPPKE	not soluble
MGSDKIHHHHHHMKNLRLTLAVIAGKILIYISRLLGHQGTSLPGRIARKIYPRILRTLSTNIRREIVVITGTNGKTTTSNMLAEILQQQGYSLVHNRLGANMLSGITTAFIEKSDIYGSRRFDYALLETDEATVPLLLRETRPRLVLITNFFQDQLDRYGEMDHTIKLIQEAVKDQEIEMLLNADDPLTANFEAETGLKCRYYGFDGNSCDSNRSIDSREVRYCAFCGHPLEYEKYHYAQLGQYSCPQCHSCNPERDFTGQELEMSPDIELKVDGMALKSPYQGFHNAYNILAAVSLARLLGVEEENIKKAIASFQPQAGRMEAFFINGKRVVLALVKNPAALNQTLASLIYDPSRKNLFFALNDNAADGRDISWIWDADVELLEYENVMVEQIVCSGQRSGDIALRFKYAGFPQERIRIEAELPRAIELAVQGSAESSYILCSYTALFACQRILREMEKRSGAGEETEKAYQPQS	not soluble
MMLPKEIMMPNDNPYALHRVKVLKVYSLTETEKLFLFRFEDPELAEKWTFKPGQFVQLTIPGVGEVPISICSSPMRKGFFELCIRKAGRVTTVVHRLKPGDTVLVRGPYGNGFPVDEWEGMDLLLIAAGLGTAPLRSVFLYAMDNRWKYGNITFINTARYGKDLLFYKELEAMKDLAEAENVKIIQSVTRDPNWPGLKGRPQQFIVEANTNPKNTAVAICGPPRMYKSVFEALINYGYRPENIFVTLERRMKCGIGKCGHCNVGTSTSWKYICKDGPVFTYFDIVSTPGLLD	not soluble
MEQRDMKTVFLLDRSAKFVENCNETFDVTIREGPKQKKLQFEKTIWTWCLEGIFEMHRILSDVYPRGTLQLRFALADFMGKMLDTQWTDGFLTREELGELIETVSRPSEANTDITPIGGLTMAIEALAVQSPEQRNYNYDVRYSANKRTAQNSEVIRVTRELRGLPPLPTVQNAGNLIMYTRLNTQEEMEQLQTEIVELVVSRNKIADAPSNKTFCPITSLRLFIVNYYATGDECTVKTHSLQAHPDLPLLKIWVISRKAADMCDAIHSLLVDAFDLGSTTVTKIPMKEDNRGSSNYDVELFHSGKVHAMLKENNLIDTVSKKGDSDKGVTYDTMRLTWTTAPKTKWSLFPYHGAAVPCTTAQAYSRPSACLTQFVRDGRCVMLDSEKTTELGMNMHEKLVSHLLIANRGRIFIQEIDFMQKKADRIAGKLKRPRVLHAPEDPINMNQLRHTYKQLELRFVAKNRMDDNLTEKETEKWTGLKNSDLKKRFQRISKNIPCFAADTFIFNEKVTPKLEPLISLITKTTLSENDVDKCKQCIVTLYQMKNERQYVISPESDIKISSVRNLKDPDEQLRVTFVELAKHIMKYVTFSEKHKEIYKTYMTTLNVDKLLEVDLDDDEAVDKMFVKFSFFGKSDTASKTDEDEDSSDDEDEEILKSPALKKLFGYVDARDERKYEELYGQGFKKKKPEVEEKPIVMAKEIKVDIFSNMCDMLEVKESKIRREFVGRETHGNIAPLYPQLAEKLERPASPAATERGTERVRNTAERGGSGTPPPGGRRNFQ	not soluble
MSLPITLDKKLPAVDILKSENIFVMDDKRAIHQDIRPMSILILNLMPTKVATETQLLRLLANTPLQLSVDFLYMTSHHSKTTQAEHMKTFYKTFKDIKDNYYDGLIITGAPVETMPFEKVDYWEELCQVFQWSKTHVYSTLHLCWGAQAGLYYRYSVDKVQMTDKLSGIYLQKVNEQLSPLMRGFDDCFLSPHSRYTEVLLKDINNKTNLEILASGEKVGLSILASRDMREVYSFGHLEYDRETLDNEYKRDLKAGKSPKIPENYYQDDDVTTHPIMRWNLAAATFFSNWINYAVYQETPYRLEELEKDISFYGYLEGHHHHHH	soluble
MGSDKIHHHHHHMFWKKDPTVSWERKNINDIDFSRFNVAIIGGTGGLGRAISRELAQRNARVTVVGQTFRDEDLKDKINFVKADLSLVSECKRISHSDEIPYEELTHLIFTTGIFASRQRQATSEGLEKDMAVSYLSRYIIFHDVAKRLGISRTKKDDLPKVFIAGFPGNGQVGDPDDLNSDEKKYSAYATHMNTVAANESLVIDAKDRYTNIDTFGLNPGLIKTNIRNNLLGSDTYLSRITEWIISWTCQSAETYAKTICTLIASPAIESRSGTMFSNKGDAILPSPGLTKDVVEKFMENSELLVEKALRNQSPFTSSNE	not soluble
MGSSHHHHHHSSGLVPRGSHMASMAGLGHPAAFGRATHAVVRALPESLGQHALRSAKGEEVDVARAERQHQLYVGVLGSKLGLQVVELPADESLPDCVFVEDVAVVCEETALITRPGAPSRRKEVDMMKEALEKLQLNIVEMKDENATLDGGDVLFTGREFFVGLSKRTNQRGAEILADTFKDYAVSTVPVADGLHLKSFCSMAGPNLIAIGSSESAQKALKIMQQMSDHRYDKLTVPDDIAANCIYLNIPNKGHVLLHRTPEEYPESAKVYEKLKDHMLIPVSMSELEKVDGLLTCCSVLINKKVDS	soluble
MSISGLFILDLKGNVVISRNYRGDVDMSCIEKFMPLLVEKEDEGSASPVLVHQGISYTYIKYMNVYLVTISKKNTNVILVLSALYKIVEVFCEYFKTLEEEAVRDNFVIIYELFDEMLDFGYPQTTESKILQEFITQQGNRLETVRPPMAVTNAVSWRSEGIKYRKNEVFLDVIESVNMLANAQGTVLRSEIVGSIRFRVVLSGMPELRLGLNDKVFFQQSGASSRRGNSGKGVELEDIKFHQCVRLSRFDSERTISFIPPDGEFELMSYRLTTQVKPLIWVEAAVERHAHSRVEYMVKAKSQFKRQSVANHVEVIIPVPSDVSAPKFKTGAGTAKYVPELNAIVWSIRSFPGGREYIMRSSFMLPSIGSEELEGRPPINVKFEIPYYTTSGLQVRYLKIIEKSGYQALPWVRYVTQNGDYQMRMT	not soluble
